Source: patent publication US20120308566A1 (published 2012)
Each block holds one binder with its values, some of them ahead of it.

Assays:
huIL-17RA-FLAG-polyHis = biological target: T1, huIL-17RA-FLAG-polyHis (human, UniProt Q96F46 33-320); assay: multiplexed Luminex binning
T1 construct: also called wild-type IL-17RA-FLAG-polyHis; HuIL-17RA-Flag-pHis
Experimental: Cross-competition studies were performed to determine IL-17RA binding characteristics of exemplary IL-17RA antibodies. […] The method employed the Bio-Plex Workstation and software (BioRad, Hercules, Calif.), as well as reagents from Luminex® Corp. (Austin, Tex.). The manufacturers' basic protocols were followed except where noted below (see www.bio-rad.com and www.luminexcorp.com for details). […] The mouse-anti-human IgG coating was evaluated and the beads quantified by FACS. Each bead code was separately incubated with 10 ul of anti-IL-17RA antibody for 1 hour at room temperature and then washed. The beads were pooled and then dispensed to a 96-well filter plate (Millipore, Billerica, Mass., product #MSBVN1250). […] The PE-tagged monovalent antibody will detect the presence of the second mAb added to the well, but not the first mAb captured by the monovalent mouse-anti-human IgG antibody. Beads were resuspended in 120 ul PBSAT and at least 100 events/bead code were collected on the Bio-Plex workstation as per the manufacturer's recommended protocol.

[1] = biological target: Human IL-17RA full-length expressed on the surface of cells (human, UniProt Q96F46 33-866); assay: cell-based or functional assay
chimera L = biological target: T2, chimera L; assay: Bio-Plex titration on His-captured chimera; bold cell = binding criterion not met
T2 construct: also called Construct L; B+F
Experimental: Twelve bead codes of pentaHis-coated beads (Qiagen, Valencia, Calif.; see www1.qiagen.com) were used to capture histidine-tagged protein. The 12 bead codes allowed the multiplexing of 11 chimeric and the wild type human IL-17RA.
To prepare the beads, 100 ul of wild-type IL-17RA supernatant from transient expression culture and 100 ul of 2.5 ug/ml chimeric protein were bound to penta-His-coated beads overnight at 4° C. or 2 hours at room temperature with vigorous shaking. The beads were washed as per the manufacturer's protocol and the 12 bead set was pooled and aliquoted into 2 or 3 columns of a 96-well filter plate (Millipore, Billerica, Mass., product #MSBVN1250) for duplicate or triplicate assay points, respectively. 100 ul anti-IL-17RA antibodies in 4-fold dilutions were added to the wells, incubated for 1 hour at room temperature, and washed. […] Beads were resuspended in 1% BSA, shaken for 3 minutes, and read on the Bio-Plex workstation. Antibody binding to IL-17RA chimeric protein was compared to antibody binding to the human IL-17RA wild-type from the same pool. A titration of antibody over approximately a 5 log scale was performed. Median Fluorescence Intensity (MFI) of chimeric proteins was graphed as a percent of maximum wild-type human IL-17RA signal.

B2: AMH7/AML7 (antibody, IgG2, V domains shown)
VH: QVQLVQSGAEVKKPGASVKVSCKASGYTLTRYGISWVRQAPGQGLEWMGWISAYNGNTNYAQKLQGRVTMTTDTSTSTAYMELRSLRSDDTAVYYCARRDYDILTGYYNGFDPWGQGTLVTVSS
VL: DIQMTQSPSSLSASVGDRVTITCRASQGIRNDLGWYQQKPGKAPKRLIYAASSLQSGVPSRFSGSGSGTEFTLTISSLQPEDFATYYCLQHKSYPLTFGGGTKVEIK
notes: human monoclonal antibody from IgG2 XenoMouse mice; also called AM-7
- binding result (huIL-17RA-FLAG-polyHis): binds

B5: AMH17/AML17 (antibody, V domains shown)
VH: QVQLVQSGAEVKKPGAAVKVSCKATGYTLTSYGISWVRQAPGQGLEWMGWISAYSGNTKYAQKLQGRVTMTTDTSTSTAYMELRSLRSDDTAVYYCARKQLVFDYWGQGTLVTVSS
VL: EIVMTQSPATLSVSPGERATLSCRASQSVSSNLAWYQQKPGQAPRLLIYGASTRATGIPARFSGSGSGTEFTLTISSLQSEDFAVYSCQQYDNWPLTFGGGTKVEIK
- IL-17A/HFF bioassay IC50; 21. Subclone of (AMH17/AML17) [1]: 2.5 nM
- IL-17A/HFF bioassay IC50; 22. Subclone of (AMH17/AML17) [1]: 5.3 nM
- IL-17A/HFF bioassay IC50; 23. Subclone of (AMH17/AML17) [1]: 0.57 nM

B6: AMH12/AML12 (antibody, IgG2, V domains shown)
VH: QVQLVQSGAEVKKPGASVKVSCKASGYTLTSYGISWVRQAPGQGLEWMGWISTYKGNTNYAQKLQGRVTMTTDTSTSTAYMELRSLRSDDTAVYYCARKQLVFDYWGQGTLVTVSS
VL: EIVMTQSPATLSVSPGERATLSCRASQSISSSLAWYQQKPGQAPRLLIYGASTRATGIPARFSGSGSGTEFTLTISSLQSENFAVYYCQQYDNWPLTFGGGTKVEIK
- IL-17A/HFF bioassay IC50; 17. Subclone of (AMH12/AML12) [1]: 3.5 nM
- IL-17A/HFF bioassay IC50; 18. Subclone of (AMH12/AML12) [1]: 3.7 nM
- IL-17A/HFF bioassay IC50; 20. Subclone of (AMH12/AML12) [1]: 5.5 nM

B8: AMH16/AML16 (antibody, IgG2, V domains shown)
VH: QVQLVQSGAEVKKPGASVKVSCKASGYTFTSYGISWVRQAPGQGLEWMGWISAYNGNTKYAQKLQGRVTMTTDTSTSTVYMELRSLRSDDTAVYYCARKQLVFDYWGQGTLVTVSS
VL: EIVMTQSPATLSVSPGERATLSCRASQSISTSLAWYQQKPGQAPRLLIYGTSTRATGIPARFSGSGSGTEFTLTISSLQSEDFAVYFCQQYDIWPLTFGGGTKVEIK
- IL-17A/HFF bioassay IC50; 24. Subclone of (AMH16/AML16) [1]: 1.6 nM
- IL-17A/HFF bioassay IC50; 25. Subclone of (AMH16/AML16) [1]: 2.3 nM
- IL-17A/HFF bioassay IC50; 26. Subclone of (AMH16/AML16) [1]: 1.4 nM

B9: AMH21/AML21 (antibody, IgG2, V domains shown)
VH: EVQLVESGGGSVQPGGSLRLSCAASGFTFSSYSMNWVRQAPGKGLEWVSIISSRSSIIHYADSVKGRFTISRDNAKNSLYLQMNSLRDEDTAVYYCARPKVGGGMDVWGQGTTVTVSS
VL: DIQMTQSPSSLSASVGDRVTITCRASQGISNYLAWYQQKPGKFPELLIYAASTLQSGVPSRFSGSGSGTDFTLTISSLQPEDVATYYCQKYNRAPFTFGPGTKVDIK
- IL-17A/HFF bioassay IC50; 4. Subclone of (AMH21/AML21) [1]: 2.3 nM
- IL-17A/HFF bioassay IC50; 5. Subclone of (AMH21/AML21) [1]: 3.1 nM
- IL-17A/HFF bioassay IC50; 6. Subclone of (AMH21/AML21) [1]: 3.3 nM

B11: AMH13/AML13 (antibody, IgG2, V domains shown)
VH: QVQLVESGGGVVQPGRSLRLSCAASGFTFSSYGMQWVRQAPGKGLEWVAVIWYDGNKKYYADSVKGRFTISRDNSKNTLYLQMNSLRAEDTAVYYCARGRVRDYYYGMDVWGQGTTVTVSS
VL: DIVMTQTPLSLSVTPGQPASIACKSSQSLLHSDGKTYLYWYLQKPGQPPQLLIYEVSTRFSGVPDRFSGSGSGTDFTLKISRVEAEDVGVFYCMQSIQLPLTFGGGTKVEIK
- IL-17A/HFF bioassay IC50; 13. Subclone of (AMH13/AML13) [1]: > 10 nM

B13: AMH18/AML18 (antibody, IgG2, V domains shown)
VH: QVQLVQSGAEVKKPGASVKVSCKASGYSFTDYYMHWVRQAPGQGLEWMGWMHPNSGGTDLAQRFQGRVTMTRDTSISTAYMELSRLRSDDTAVYYCARGGYCSTLSCSFYWYFDLWGRGTLVTVSS
VL: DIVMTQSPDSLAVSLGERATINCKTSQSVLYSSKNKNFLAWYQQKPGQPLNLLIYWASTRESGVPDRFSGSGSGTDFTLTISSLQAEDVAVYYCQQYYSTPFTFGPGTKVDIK
notes: human monoclonal antibody from IgG2 XenoMouse mice; also called AM-18
- EC50 entry; zero = binding ablated (chimera L): 0 µM
- IL-17A/HFF bioassay IC50; 14. Subclone of (AMH18/AML18) [1]: 0.44 nM
- IL-17A/HFF bioassay IC50; 15. Subclone of (AMH18/AML18) [1]: 0.4 nM
- IL-17A/HFF bioassay IC50; 16. Subclone of (AMH18/AML18) [1]: 0.17 nM

Further lines, results first:

- binding result (huIL-17RA-FLAG-polyHis): binds
B1: AMH10/AML10 (antibody, IgG2, V domains shown)
VH: QVQLQESGPGLVKPSQTLSLTCTVSGGSISSGGYYWSWIRQHPGKGLEWIGYIYFSGSAYYNPSLKSRVAISVDTSKNQFSLKLSSVTAADTAVYYCAREYYDSSGYPDAFDIWGQGTMVTVSS
VL: DIQMTQSPSSVSASVGDRVTITCRASQGIRSWLAWYQQKPGKAPKLLIFAASSLQSGVPSRFSGSGSGTEFTLTISSLQPEDFATYYCQQANNFPRTFGQGTKVEIK
notes: human monoclonal antibody from IgG2 XenoMouse mice; also called AM-10

- binding result (huIL-17RA-FLAG-polyHis): binds
B3: AMH6/AML6 (antibody, IgG2, V domains shown)
VH: QVQLVQSGAEVKKPGASVKVSCKASGYTLTRYGISWVRQAPGQGLEWMGWISAYNGNTNYAQKLQGRVTMTTDTSTSTAYMELRSLRSDDTAVYYCARRDYDILTGYYNGFDPWGQGTLVTVSS
VL: DIQMTQSPSSLSASVGDRVTITCRASQGIRNDLGWYQQKPGKAPKRLIYAASSLQSGVPSRFSGSGSGTEFTLTISSLQPEDFATYYCLQHKSYPLTFGGGTKVEIK
notes: human monoclonal antibody from IgG2 XenoMouse mice; also called AM-6

- binding result (huIL-17RA-FLAG-polyHis): binds
B4: AMH8/AML8 (antibody, IgG2, V domains shown)
VH: QVQLVQSGAEVKKPGASVKVSCKASGNTFTGYGISWVRQAPGQGLEWMGWISAYNGNTNYAQNLQGRVTMTTDTSTSTAYMELRSLRSDDTAVYYCARRDYDILTGYYNGFDPWGQGTLVTVSS
VL: DIQMTQSPSSLSASVGDRVTITCRASQGIRNDLGWYQQKPGKAPKRLIYAASSLQSGVPSRFSGSGSGTEFTLTISSLQPEDFATYYCLQHKSYPLTFGGGTKVEIK
notes: human monoclonal antibody from IgG2 XenoMouse mice; also called AM-8

- IL-17A/HFF bioassay IC50; 10. Subclone of (AMH19/AML19) [1]: 0.22 nM
- IL-17A/HFF bioassay IC50; 11. Subclone of (AMH19/AML19) [1]: 1.1 nM
- IL-17A/HFF bioassay IC50; 12. Subclone of (AMH19/AML19) [1]: 0.5 nM
B7: AMH19/AML19 (antibody, IgG2, V domains shown)
VH: QVQLVQSGAEVKKPGASVKVSCKASGYTLTSYGISWVRQAPGQGLEWMGWISAYSGNTKYAQKFQGRVTMTTDTSTSTAYMELRSLRSDDTAVYYCARRQLALDYWGQGTLVTVSS
VL: EIVMTQSPATLSVSPGERATLSCRASQSISSNLAWYQQKPGQAPRLLIYGASTRATGIPARFSDNGSGTEFTLTISSLQSEDFAVYFCQQYDTWPLTFGGGTKVEIK

- IL-17A/HFF bioassay IC50; 7. Subclone of (AMH20/AML20) [1]: 8.1 nM
- IL-17A/HFF bioassay IC50; 8. Subclone of (AMH20/AML20) [1]: 6.6 nM
- IL-17A/HFF bioassay IC50; 9. Subclone of (AMH20/AML20) [1]: 6.7 nM
B10: AMH20/AML20 (antibody, IgG2, V domains shown)
VH: EVQLVESGGGLVQPGGSLRLSCAASGFTFSSYSMNWVRQAPGKGLEWVSFISARSSTIYYADSVKGRFTISRDNAKNSLYLQMNSLRDEDTAVYYCARPKVGGGMDVWGQGTTVTVSS
VL: DIQMTQSPSSLSASVGDRVTITCRASQGISNYLAWYQQKPGKFPELLIYAASTLQSGVPSRFSGSGSGTDFTLTISSLQPEDVATYYCQKYNRAPFTFGPGTKVDIK

- binding result (huIL-17RA-FLAG-polyHis): binds
B12: AMH4/AML4 (antibody, IgG2, V domains shown)
VH: QVQLVESGGGVVQPGRSLRLSCAASGINFSSYGMHWVRQAPGKGLEWVAVIWYDGSNKHYADSVKGRFTISRDNSKNTLYLQMNSLRAEDTAVYYCARDTGVYWGQGTLVTVSS
VL: not shown
notes: human monoclonal antibody from IgG2 XenoMouse mice; also called AM-4
